Measured values reported in US20240360201A1 (BIOCYTOGEN PHARMACEUTICALS BEIJING, published 2024).

T1: FcγRIIA-H167-Acro (human, UniProt P12318 36-218, limits assumed)
T1 construct: bought; His at 167; also called Human Fc gamma RIIA/CD32a (H167) Protein, His Tag
T1 sequence (looked up): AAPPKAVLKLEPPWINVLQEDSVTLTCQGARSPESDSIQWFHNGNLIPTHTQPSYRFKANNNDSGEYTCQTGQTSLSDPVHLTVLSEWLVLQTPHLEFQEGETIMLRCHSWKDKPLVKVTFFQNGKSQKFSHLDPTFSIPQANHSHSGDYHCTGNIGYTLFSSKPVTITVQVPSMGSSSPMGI


Legend:
FcγRI-Sino = target: T2, FcγRI-Sino (human, UniProt P12314 16-288, limits assumed); assay: SPR (Biacore T200, protein A sensor chip), binding to FcγRI-Sino
T2 construct: bought; also called CD64 Protein, Human, Recombinant (His Tag)
T2 sequence (P12314 16-288 limits assumed): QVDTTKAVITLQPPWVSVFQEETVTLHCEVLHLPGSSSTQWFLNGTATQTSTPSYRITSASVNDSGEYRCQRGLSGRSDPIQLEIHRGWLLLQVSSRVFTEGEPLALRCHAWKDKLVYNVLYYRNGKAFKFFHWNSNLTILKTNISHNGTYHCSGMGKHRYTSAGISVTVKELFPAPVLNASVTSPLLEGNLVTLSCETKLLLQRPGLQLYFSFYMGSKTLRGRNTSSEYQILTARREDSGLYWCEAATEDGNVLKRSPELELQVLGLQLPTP
From the text: (§1) The Fc receptors included FcγRIIB (FcγRIIB-Acro), FcγRIIA (FcγRIIA-H167-Acro), FcγRIIIA (FcγRIIIA-V176-Acro), FcγRIIIB (FcγRIIIB-NA1-Acro), FcγRI (FcγRI-Sino), and FcRn (FcRn-Acro).
(§2) The Fc receptors included FcγRI (FcγRI-Sino), FcγRIIA (FcγRIIA-H167-Acro and FcγRIIA-R167), FcγRIIB, FcγRIIIA (FcγRIIIA-F176 and FcγRIIIA-V176-Acro), and FcγRIIIB (FcγRIIIB-NA1-Acro).

FcγRIIA-H167-Acro = target: T1, FcγRIIA-H167-Acro; assay: SPR (Biacore T200, protein A sensor chip), binding to FcγRIIA-H167-Acro
From the text: as §1, §2

FcγRIIIA-V176-Acro = target: T3, FcγRIIIA-V176-Acro (human, UniProt P08637 17-208); assay: SPR (Biacore T200, protein A sensor chip), binding to FcγRIIIA-V176-Acro
T3 construct: bought; Val at 176; also called Human Fc gamma RIIIA/CD16a (V176) Protein, His Tag
T3 sequence (P08637 17-208 F176V limits assumed): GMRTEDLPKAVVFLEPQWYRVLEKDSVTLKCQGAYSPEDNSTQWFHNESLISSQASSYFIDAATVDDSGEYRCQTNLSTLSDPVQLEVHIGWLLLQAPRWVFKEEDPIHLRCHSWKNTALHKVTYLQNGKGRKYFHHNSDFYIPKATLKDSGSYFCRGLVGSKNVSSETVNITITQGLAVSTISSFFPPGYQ
From the text: as §1, §2

FcγRIIB = target: T4, FcγRIIB (human); assay: SPR (Biacore T200, protein A sensor chip), binding to FcγRIIB
T4 construct: recombinant protein used as SPR analyte
T4 sequence (P31994 43-217): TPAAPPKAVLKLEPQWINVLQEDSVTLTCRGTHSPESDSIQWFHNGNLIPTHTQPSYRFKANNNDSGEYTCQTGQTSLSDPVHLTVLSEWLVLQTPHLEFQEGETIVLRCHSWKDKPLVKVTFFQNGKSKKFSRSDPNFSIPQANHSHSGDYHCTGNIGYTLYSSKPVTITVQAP
From the text: as §1, §2

FcγRIIA-R167 = target: T5, FcγRIIA-R167 (human); assay: SPR (Biacore T200, protein A sensor chip), binding to FcγRIIA-R167
T5 construct: recombinant, His tag; ACRO product; different from FcγRIIA-R167-Sino; also called Human Fc gamma RIIA/CD32a (R167) Protein, His Tag
From the text: as §1, §2

human CD40 (hCD40-his) = human CD40 (hCD40-his) (human, UniProt P25942 21-193); assay: SPR Biacore T200; binder captured on protein A chip, target as analyte
Sequence of human CD40 (hCD40-his) (P25942 21-193 limits assumed): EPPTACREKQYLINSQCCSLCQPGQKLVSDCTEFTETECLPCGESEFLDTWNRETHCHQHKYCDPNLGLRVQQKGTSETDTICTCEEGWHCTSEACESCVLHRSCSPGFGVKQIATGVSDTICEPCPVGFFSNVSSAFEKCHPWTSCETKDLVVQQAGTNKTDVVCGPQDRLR
Procedure: Binding affinity to human CD40 of the obtained fusion proteins PDL1-C40-6A7-FV3A (IgG1), PDL1-C40-6A7-FV3A-IgG4, PDL1-C40-6A7-FV3C (IgG1), PDL1-C40-6A7-FV3A1 (IgG1), PDL1-C40-6A7-FV3A2 (IgG1), and PDL1-C40-6A7-FV3A3 (IgG1) were determined by surface plasmon resonance (SPR) using Biacore™ T200 biosensor equipped with pre-immobilized protein A sensor chips. The original anti-CD40 monoclonal antibody C40-6A7 IgG2 (6A7, VH SEQ ID NO: 91, VL SEQ ID NO: 92), which the scFV was derived from, was used as a control.

[1] = target: T6, 6×Histidine-tagged human PD-L1 protein (hPDL1-His) (human, UniProt Q9NZQ7 19-238); assay: as above
T6 construct: also called hPL1-His; His-tagged human PD-L1
T6 sequence (Q9NZQ7 19-238 limits assumed): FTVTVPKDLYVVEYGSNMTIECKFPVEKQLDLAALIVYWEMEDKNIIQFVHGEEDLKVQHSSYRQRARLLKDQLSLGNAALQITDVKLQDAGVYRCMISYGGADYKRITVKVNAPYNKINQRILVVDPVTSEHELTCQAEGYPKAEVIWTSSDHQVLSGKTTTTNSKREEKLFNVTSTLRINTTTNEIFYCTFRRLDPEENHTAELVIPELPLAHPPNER
Procedure: Binding affinities of the fusion proteins against human CTLA4 (hCTLA4-His) or human PD-L1 (hPDL1) were measured by surface plasmon resonance (SPR) using Biacore™ T200 biosensor equipped with pre-immobilized protein A sensor chips. A CTLA4 antibody CT4-4G12-IgG1 (CT4) was used as a control. ATOR1015-CD86 (CD86) and KN035-IgG1 (with D265A mutation in heavy chain constant domain) were also used as controls.

FcγRIIIA-F176 = target: T7, FcγRIIIA-F176 (human, UniProt P08637); assay: SPR (Biacore T200, protein A sensor chip), binding to FcγRIIIA-F176
T7 construct: recombinant, His tag; ACRO product; different from FcγRIIIA-F176-Sino; also called Human Fc gamma RIIIA/CD16a (F176) Protein, His Tag
T7 sequence (P08637 17-208 limits assumed, form in doubt): as the sequence (P08637 17-208 F176V limits assumed) above, with V160F counted along it
From the text: as §1, §2

FcγRIIIB-NA1-Acro = target: T8, FcγRIIIB-NA1-Acro (human, UniProt O75015 17-200, limits assumed); assay: SPR (Biacore T200, protein A sensor chip), binding to FcγRIIIB-NA1-Acro
T8 construct: bought; also called Human Fc gamma RIIIB/CD16b (NA1) Protein, His Tag
T8 sequence (O75015 other isoform, or with tags, fused parts or gaps limits assumed): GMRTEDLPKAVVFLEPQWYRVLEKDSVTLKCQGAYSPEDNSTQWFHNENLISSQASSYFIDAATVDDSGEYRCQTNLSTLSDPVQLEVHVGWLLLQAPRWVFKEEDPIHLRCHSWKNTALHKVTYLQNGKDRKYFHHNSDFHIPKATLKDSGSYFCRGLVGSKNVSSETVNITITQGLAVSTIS
From the text: as §1, §2

Binder	Kd (FcγRI-Sino)	Kd (FcγRIIA-H167-Acro)	Kd (FcγRIIIA-V176-Acro)	Kd (FcγRIIB)	Kd (FcγRIIA-R167)	Kd (human CD40 (hCD40-his))	koff (human CD40 (hCD40-his))	kon (human CD40 (hCD40-his))	Kd [1]	koff [1]	kon [1]	Kd (FcγRIIIA-F176)	Kd (FcγRIIIB-NA1-Acro)
PDL1-C40-6A7-FV3A-IgG4 (bispecific antibody, IgG4 subtype of PDL1-C40-6A7-FV3A; also called G5) heavy: EVQLLESGGGLVQPGGSLRLSCAASGFTFSSYIMMWVRQAPGKGLEWVSSIYPSGGITFYADTVKGRFTISRDNSKNTLYLQMNSLRAEDTAVYYCARIKLGTVTTVDYWGQGTLVTVSSASTKGPSVFPLAPCSRSTSESTAALGCLVKDYFPEPVTVSWNSGALTSGVHTFPAVLQSSGLYSLSSVVTVPSSSLGTKTYTCNVDHKPSNTKVDKRVESKYGPPCPPCPAPEFLGGPSVFLFPPKPKDTLMISRTPEVTCVVVDVSQEDPEVQFNWYVDGVEVHNAKTKPREEQFNSTYRVVSVLTVLHQDWLNGKEYKCKVSNKGLPSSIEKTISKAKGQPREPQVYTLPPSQEEGGGGSGGGGSDVVMTQSPLSLPVTLGQPASISCRSSQSLLHSNGNTYLHWYQQRPGQSPNHLIYQVSNRFSGVPDRFSGSGSGTDFTLKISRVEAEDVGVYFCSQTTHVPWTFGCGTKVEIKGGGGSGGGGSGGGGSGGGGSQVQLVQSGAEVKKPGASVKLSCKASGYTFISYYIYWVKQAPGQCLEWIGGINPRNGGTNFNEKFKSRATLTVDTSISTAYMELSRLRSEDTAVYYCTRHGNGVYWGQGTTLTVSSGGGGSGGGGSVSLTCLVKGFYPSDIAVEWESNGQPENNYKTTPPVLDSDGSFFLYSRLTVDKSRWQEGNVFSCSVMHEALHNHYTQKSLSLSLGK light: QSALTQPASVSGSPGQSITISCTGTSSDVGGYNYVSWYQQHPGKAPKLMIYDVSNRPSGVSNRFSGSKSGNTASLTISGLQAEDEADYYCSSYTSSSTRVFGTGTKVTVLGQPKANPTVTLFPPSSEELQANKATLVCLISDFYPGAVTVAWKADGSPVKAGVETTKPSKQSNNKYAASSYLSLTPEQWKSHRSYSCQVTHEGSTVEKTVAPTECS	1.22 nM	1130 nM	75.3 nM	766 nM	706 nM	0.852 nM	0.000432 s⁻¹	507000 M⁻¹ s⁻¹	–	–	–	–	–
PD1-PL1-3F2-FV3A-IgG1 (bispecific antibody, IgG1; also called G4) heavy: EVQLVESGGGLVQPGGSLRLSCAASGFTFSSYSMSWVRQAPGKRLEWVAHISSGGSSTYYPDTVKGRFTISRDNSKNTLYLQMNSLRAEDTAMYYCTRQFYYGSSFWYFDVWGAGTTVTVSSASTKGPSVFPLAPSSKSTSGGTAALGCLVKDYFPEPVTVSWNSGALTSGVHTFPAVLQSSGLYSLSSVVTVPSSSLGTQTYICNVNHKPSNTKVDKKVEPKSCDKTHTCPPCPAPELLGGPSVFLFPPKPKDTLMISRTPEVTCVVVDVSHEDPEVKFNWYVDGVEVHNAKTKPREEQYNSTYRVVSVLTVLHQDWLNGKEYKCKVSNKALPAPIEKTISKAKGQPREPQVYTLPPSREEGGGGSGGGGSQVQLQESGPGLVKPSETLSLTCTVSGYSITSGYNWHWIRQFPGNCLEWMGYIHHSSITNYNPSLKSRITISRDTSKNQFSLKLSSVTAADTATYYCAREGYDYDWFAYWGQGTLVTVSSASTGGGGSGGGGSGGGGSGGGGSDIVLTQSPDFQSVTPKEKVTLSCRASQSISNNLHWYQQKPDESPKLLIKYASQSISGIPSRFSGSGSGTDFTLTINSVEAEDFAMYFCQQSKSWPFTFGCGTRLEIKGGGGSGGGGSVSLTCLVKGFYPSDIAVEWESNGQPENNYKTTPPVLDSDGSFFLYSKLTVDKSRWQQGNVFSCSVMHEALHNHYTQKSLSLSPGK light: DNVLTQSPATLSVSPGERATLSCKASQSVDFDGDSYMNWYQQKPGQPPRLLIYAASNLESGIPARFSGSGSGTDFTLTISSVEPEDFATYYCQQSNEDPPTFGGGTKVEIKRTVAAPSVFIFPPSDEQLKSGTASVVCLLNNFYPREAKVQWKVDNALQSGNSQESVTEQDSKDSTYSLSSTLTLSKADYEKHKVYACEVTHQGLSSPVTKSFNRGEC	2.94 nM	633 nM	130 nM	2350 nM	326 nM	–	–	–	2.41 nM	0.00103 s⁻¹	429000 M⁻¹ s⁻¹	84.6 nM	1180 nM
